In FireProtDB (doi:10.1110/ps.0237703):

B1: A51V, O00095 (parent)
chain: MKFLQVLPALIPAALAQTSCDQWATFTGNGYTVSNNLWGASAGSGFGCVTAVSLSGGASWHADWQWSGGQNNVKSYQNSQIAIPQKRTVNSISSMPTTASWSYSGSNIRANVAYDLFTAANPNHVTYSGDYELMIWLGKYGDIGPIGSSQGTVNVGGQSWTLYYGYNGAMQVYSFVAQTNTTNYSGDVKNFFNYLRDNKGYNAAGQYVLSYQFGTEPFTGSGTLNVASWTASIN

Variants of: B1
Conditions: Hypocrea jecorina; pH 8; Thermal; CD; Bis-Tris propane ammonium acetate 0.05 M 0.05 M; reversible: No; structure 1H8V; whole UniProt chain shown

| Variant | Tm | change of melting temperature, mutant - wild type (higher = more stable) |
| --- | --- | --- |
| A51V | 62.1 °C | 7.7 °C |
| A51S | 50.4 °C | -4 °C |
| A82N | 54.5 °C | 0.1 °C |
| N183S | 54.6 °C | 0.2 °C |
| S55N | 54.9 °C | 0.5 °C |
| T179S | 54.7 °C | 0.3 °C |
| N107D | 54.9 °C | 0.5 °C |
| A204G | 54.9 °C | 0.5 °C |
| S79V | 53.6 °C | -0.8 °C |
| G57A | 56.9 °C | 2.5 °C |
| S93G | 54.5 °C | 0.1 °C |
| S159T | 54.9 °C | 0.5 °C |
| T27S T32I | 55.5 °C | 1.1 °C |
| W23Y | 53.4 °C | -1 °C |
